From patent US20180087053, “ANTI-CANCER RNA APTAMERS” (CITY OF HOPE, published 2018) come the findings set out here.

In the data set the target is mortalin (mitochondrial Hsp70, mHSP70) on PANC-1 cell surface (Homo sapiens, UniProt P38646 P38646:47-679). Kind of data set: flow; intact PANC-1 cells, 37 C, 15.6-500 nM aptamer; target identified as mortalin by pulldown/MS. The settings on record: tags: endogenous, label: Cy3 (flow) or 3'-biotin (SPR, pulldown), multi-stem-loop (Mfold). As to the method:
FIG. 1A-1G: Showing the secondary structure and pancreatic cancer specific internalization (FIG. 1A). Cartoon of the secondary structures of P19 (SEQ ID NO:2) and P1 (SEQ ID NO:4) are shown; aptamers were selected from randomized N40 RNA libraries and were predicted using the Mfold program. (FIG. 1B) Cy3-labeled RNAs were tested for binding to PANC-1 and NC as control cells by flow cytometry. Data represent the average of three replicated. Initial RNA library pool is shown as Library, P1 and P19. Cy3 labeled P19 and P1 incubation in. (FIG. 1C) Cy3-labeled RNAs (100 nM) was tested for internalization by confocal in negative cells, PANC-1 and MIA PaCa-2: Cy3-labeled RNA. (FIG. 1D) Cy3-labeled RNAs (100 nM) was tested for the internalization in primary pancreatic epithelial cells; Cy3-labeled RNA. (FIG. 1E) The representative images by histopathological screen in pancreatic cancer and normal pancreas. The samples were stained with Cy3 labeled aptamer P1 and P19 respectively and examined at 100× magnification. White arrow indicate that P19 binding to cancer region. Cy3-labeled RNA. (FIG. 1F) A total of 72 patients of pancreatic adenocarcinoma had undergone. The Correlation coefficient between P1 and P19 is 0.891. […] Median fluorescence intensity (MFI) was measured and calculated using one site binding non-linear curve regression with a Graph Pad Prism.

mortalin (mitochondrial Hsp70, mHSP70) on PANC-1 cell surface, sequence (P38646 47-679, one chain of several): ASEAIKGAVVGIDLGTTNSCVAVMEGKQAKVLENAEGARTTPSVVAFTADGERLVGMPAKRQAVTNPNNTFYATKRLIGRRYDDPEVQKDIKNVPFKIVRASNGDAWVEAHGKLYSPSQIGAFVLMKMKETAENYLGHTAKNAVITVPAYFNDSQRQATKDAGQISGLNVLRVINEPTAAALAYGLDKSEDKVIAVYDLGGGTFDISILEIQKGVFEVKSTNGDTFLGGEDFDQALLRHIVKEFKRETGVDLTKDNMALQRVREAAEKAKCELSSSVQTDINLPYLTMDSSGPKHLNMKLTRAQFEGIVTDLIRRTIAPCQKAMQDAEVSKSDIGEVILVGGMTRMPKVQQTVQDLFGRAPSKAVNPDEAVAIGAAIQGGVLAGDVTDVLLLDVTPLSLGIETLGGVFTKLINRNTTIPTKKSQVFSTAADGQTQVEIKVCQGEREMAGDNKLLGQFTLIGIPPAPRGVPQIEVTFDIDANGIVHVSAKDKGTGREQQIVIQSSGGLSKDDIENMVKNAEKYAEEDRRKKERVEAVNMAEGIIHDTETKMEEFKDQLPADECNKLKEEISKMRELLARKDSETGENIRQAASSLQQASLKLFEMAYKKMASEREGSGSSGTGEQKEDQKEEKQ

B1: P19 (ssRNA)
RNA: GGGAGACAAGAAUAAACGCUCAAUGGCGAAUGCCCGCCUAAUAGGGCGUUAUGACUUGUUGAGUUCGACAGGAGGCUCACAACAGGC
modifications: 2'-F pyrimidines
Regarding B1, the Kd is 13.1 nM.
